{
  "source": "patent US20170066801A1",
  "about": "“ALPHA3BETA HYDROGEN BOND SURROGATE MACROCYCLES AS MODULATORS OF RAS” (NEW YORK UNIVERSITY, priority 2014, published 2017)",
  "key": {"HRas^(1-166)": {"biological_target": "T1, HRas^(1-166) (Homo sapiens, UniProt P01112)", "T1 construct": "6×His-tagged HRas WT 1-166; made in house", "test": "In vitro pulldown binding assay with 6×His-tagged HRas 1-166 and fluorescein-tagged SOS peptides", "settings": "fluorescein-tagged peptides, 4° C., 1 hour", "procedure": "Recombinantly purified 6×His-tagged HRas WT 1-166 was incubated with Ni-NTA sepharose beads, generating recombinant Ras on solid support. FITC labeled HBS peptides were incubated in the presence of recombinant HRas-6×His/Ni-NTA Sepharose complex at 4° C. for 1 hour. Beads complexes were pelleted and washed 5× with protein buffer (20 mM Tris-HCl pH 7.6, 50 mM NaCl, 4 mM EDTA, 10 mM MgCl2), resuspended in reducing buffer (126 mM Tris-HCL pH 6.8, 20% glycerol, 4% SDS, 0.02% bromophenol blue, 2.5% β-mercaptoethanol), boiled for 10 minutes at 95° C., and subjected to SDS-PAGE with an acrylamide percentage of 20% to allow for sufficient resolution of the HBS helices. SDS-PAGE gels were imaged using an ImageQuant™ LAS 4000 biomolecular imager (GE Healthcare, Piscataway, N.J., USA). Quantification of fluorescence by FITC-HBS helices in gel was determined by manufacturer provided ImageQuant™ TL software. Raw values were normalized to total input and plotted on a semilog graph with GraphPad Prism version 6.00 for OSX (GraphPad Software, La Jolla Calif. USA, www.graphpad.com).\nThe binding affinity of the designed compounds for Ras was determined using in vitro pulldown assays with recombinantly purified 6×His-tagged HRas^(1-166) and fluorescein-tagged SOS peptides (FIGS. 8 and 9, and Table 2). […]"}, "[1]": {"biological_target": "6×His-tagged HRas WT 1-166 (UniProt P01112)", "test": "in vitro pull-down: fluorescein-tagged peptide on 6×His-HRas 1-166 / Ni-NTA beads, in-gel fluorescence"}},
  "note": "Non-standard residues stand in square brackets, D forms with d. Residues, ends and D or L forms follow the SMILES beside them. No end group written: not given here. β3hI = CC[C@H](C)[C@H](N)CC(=O)O; β3hE = N[C@@H](CCC(=O)O)CC(=O)O; β3hA = C[C@H](N)CC(=O)O; Flu = fluorescein",
  "data": [
    {"molecule": "CC[C@H](C)[C@@H](CC(=O)N[C@@H](Cc1ccc(O)cc1)C(=O)N[C@@H](CCCNC(=N)N)C(=O)N[C@@H](CC(C)C)C(=O)N[C@@H](CCC(=O)O)CC(=O)N[C@@H](CC(C)C)C(=O)N[C@@H](CC(C)C)C(=O)N[C@@H](CCCCN)C(=O)N[C@@H](C)CC(=O)N[C@@H](CCC(=O)O)C(=O)N[C@@H](CCC(=O)O)C(=O)N[C@@H](C)C(=O)N[C@@H](CC(N)=O)C(N)=O)NC(=O)CNC(=O)[C@H](CCC(=O)O)NC(=O)[C@H](Cc1ccccc1)NC(C)=O", "note": "[α3β-UNCSOS, Ac-FEGiYRLeLLKaEEAN-NH2] (Ac-FEG[β3hI]YRL[β3hE]LLK[β3hA]EEAN-NH2)", "values": [
      {"measurement": "Kd", "setting": "HRas^(1-166)", "result": "30.6 ± 12", "unit": "µM"}
    ]},
    {"molecule": "FEGIYRLELLKAEEAN (not fully specified; also: hydrogen bond surrogate macrocycle at N-terminus, fluorescein tag, site and linker not given here)", "note": "[α-HBSSOS (fluorescein-tagged)]", "values": [
      {"measurement": "Kd", "setting": "[1]", "result": 7.75, "unit": "µM"}
    ]},
    {"molecule": "Ac-FEG[β3hI]YRL[β3hE]LLK[β3hA]EEANK(Flu)-NH2 (not fully specified (residue 3); printed as Ac-FEG*iYRLeLLKaEEANK(Flu)-NH2)", "note": "[α3β-UNCSOS-Flu]", "values": [
      {"measurement": "fold weaker affinity than α3β-HBSSOS", "setting": "[1]", "result": 136, "unit": "fold"}
    ]}
  ]
}
